According to article PMC2139871:

Key:
[1] = target: actin-related protein Arp1 of the dynactin complex (mouse (endogenous in J774)) (UniProt P61164); test: co-IP
[2] = target: cytoplasmic dynein 74-kD intermediate chain (mouse (endogenous in J774)) (UniProt O88487); test: co-IP
UniProt O88487, sequence (O88487 whole entry): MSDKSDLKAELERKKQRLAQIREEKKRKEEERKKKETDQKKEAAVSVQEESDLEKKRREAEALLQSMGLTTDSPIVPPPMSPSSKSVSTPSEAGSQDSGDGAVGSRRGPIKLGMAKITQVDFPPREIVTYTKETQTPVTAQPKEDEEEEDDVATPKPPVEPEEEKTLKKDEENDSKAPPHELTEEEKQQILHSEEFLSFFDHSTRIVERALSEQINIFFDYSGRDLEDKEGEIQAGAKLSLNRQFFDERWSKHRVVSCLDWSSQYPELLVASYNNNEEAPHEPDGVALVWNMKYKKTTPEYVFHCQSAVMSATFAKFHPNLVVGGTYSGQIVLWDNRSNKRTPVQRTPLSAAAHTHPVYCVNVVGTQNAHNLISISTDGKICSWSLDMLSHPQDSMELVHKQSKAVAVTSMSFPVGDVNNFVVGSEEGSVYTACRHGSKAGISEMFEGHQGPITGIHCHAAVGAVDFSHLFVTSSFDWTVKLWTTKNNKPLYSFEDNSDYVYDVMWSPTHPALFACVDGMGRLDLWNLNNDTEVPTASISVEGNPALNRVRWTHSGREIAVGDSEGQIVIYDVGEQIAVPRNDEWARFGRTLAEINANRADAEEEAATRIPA

UniProt P61164, sequence (P61164 whole entry, one chain of several): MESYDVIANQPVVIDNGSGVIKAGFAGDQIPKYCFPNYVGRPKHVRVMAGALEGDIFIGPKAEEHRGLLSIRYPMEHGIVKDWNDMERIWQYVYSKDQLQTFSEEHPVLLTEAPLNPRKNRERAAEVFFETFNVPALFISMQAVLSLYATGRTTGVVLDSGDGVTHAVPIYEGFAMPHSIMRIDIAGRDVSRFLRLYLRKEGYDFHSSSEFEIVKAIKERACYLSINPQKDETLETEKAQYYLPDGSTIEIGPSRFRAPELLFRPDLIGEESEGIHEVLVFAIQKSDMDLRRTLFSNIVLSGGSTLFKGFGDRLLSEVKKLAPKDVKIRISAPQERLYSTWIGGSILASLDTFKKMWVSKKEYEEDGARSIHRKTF

## dynactin subunit p150^Glued (from UniProt O08788 1-1281) (natural protein)
[1]
  percent removed from cytosol by immunodepletion of the bait: 95%

## cytoplasmic dynein heavy chain (from UniProt Q9JHU4 1-4644) (natural protein)
[2]
  percent removed from cytosol by immunodepletion of the bait: 80%
